According to patent publication EP1161455B1:

Assays:
[1] = molecular target: HIV-1 Env (LAV) (HIV-1 (LAV)) (UniProt P03377); test: cell-based or functional assay
[2] = molecular target: HIV-1 wildtype (WT) SF162 Env (HIV-1 (SF162)) (UniProt P19550); test: cell-based or functional assay

Row | % control, Standard Assay (target cells with CXCR4 and CD4, no sCD4); 17b 0.1 µg/ml [1] [% control] | % control, Standard Assay (target cells with CXCR4 and CD4, no sCD4); 17b 0.5 µg/ml [1] [% control] | % control, Standard Assay (target cells with CXCR4 and CD4, no sCD4); 17b 1 µg/ml [1] [% control] | % control, Standard Assay (target cells with CXCR4 and CD4, no sCD4); 17b 5 µg/ml [1] [% control] | % control, sCD4 Assay (target cells with CXCR4 alone, sCD4 200 nM added); 17b 0.1 µg/ml [1] [% control] | % control, sCD4 Assay (target cells with CXCR4 alone, sCD4 200 nM added); 17b 0.5 µg/ml [1] [% control] | % control, sCD4 Assay (target cells with CXCR4 alone, sCD4 200 nM added); 17b 1 µg/ml [1] [% control] | % control, sCD4 Assay (target cells with CXCR4 alone, sCD4 200 nM added); 17b 5 µg/ml [1] [% control] | β-gal, Standard Assay (target cells with CXCR4 and CD4, no sCD4); 17b 0.1 µg/ml; no MAb 42.3 [1] | β-gal, Standard Assay (target cells with CXCR4 and CD4, no sCD4); 17b 0.5 µg/ml [1] | β-gal, Standard Assay (target cells with CXCR4 and CD4, no sCD4); 17b 1 µg/ml [1] | β-gal, Standard Assay (target cells with CXCR4 and CD4, no sCD4); 17b 5 µg/ml [1] | β-gal, sCD4 Assay (target cells with CXCR4 alone, sCD4 200 nM added); 17b 0.1 µg/ml; no MAb 11.89 [1] | β-gal, sCD4 Assay (target cells with CXCR4 alone, sCD4 200 nM added); 17b 0.5 µg/ml [1] | β-gal, sCD4 Assay (target cells with CXCR4 alone, sCD4 200 nM added); 17b 1 µg/ml [1] | β-gal, sCD4 Assay (target cells with CXCR4 alone, sCD4 200 nM added); 17b 5 µg/ml [1] | Substance | Total β-gal, WT Env (SF162), duplicate 1; effector cells with Env, target cells with CCR5 and no CD4; + sCD4 (100 nM) [2] | Total β-gal, WT Env (SF162), mean; + sCD4 (100 nM); 0.45 without sCD4 [2]
1 | 93.4 | 104 | 94.1 | 119 | 114 | 39.2 | 14.1 | 0 | 39.5 | 43.9 | 39.8 | 50.5 | 13.6 | 4.66 | 1.68 | 0 | MAb 17b (antibody) |  | 
2 |  |  |  |  |  |  |  |  |  |  |  |  |  |  |  |  | soluble CD4 (from UniProt P01730 26-208) (receptor) | 6.6 | 5.9
